Experimental data reported in patent US11535650 (RA PHARMACEUTICALS, dated 2022).
Positions of bridges follow the written chain, without caps; N, C: chain ends. Non-standard residues stand in square brackets, D forms with d. Primed or numbered codes have the meaning given here. mXylyl(3) = bridging moiety between the two residues given in brackets; mXylyl = bridging moiety between residues (mXylyl(i,j)); Ala(1H-tetrazol-5-yl) = N[C@@H](Cc1nnn[nH]1)C(=O)O; Trp(7-aza) = N[C@@H](Cc1c[nH]c2ncccc12)C(=O)O; mXylyl(4) = bridging moiety between residues; Trp(1-Me) = Cn1cc(C[C@H](N)C(=O)O)c2ccccc21; pXylyl = bridging moiety between residues; Tiq1c(1S) = O=C(O)[C@H]1NCCc2ccccc21; Phg = N[C@H](C(=O)O)c1ccccc1; Tle = CC(C)(C)[C@H](N)C(=O)O; NMeS = CN[C@@H](CO)C(=O)O; hCys = N[C@@H](CCS)C(=O)O; Nle = CCCC[C@H](N)C(=O)O; Nva = CCC[C@H](N)C(=O)O; Sar = CNCC(=O)O

Target: human C5 protein (human, UniProt P01031 19-673; P01031 678-1676)
Test: cell-based or functional assay

Binder	Avg. IC50, human hemolysis assay (complete human sera)
Ac-[Nva]C[Phg]T[Trp(7-aza)]EY[NMeS]H[hCys][Nva]-NH2 (linker 2-10 via mXylyl(4)) [R3105]	> 5 µM
Ac-[Nva]C[Phg]TW[Ala(1H-tetrazol-5-yl)]Y[NMeS]HC[Nva]-NH2 (linker 2-10 via mXylyl(3)) [R3131]	> 100 µM
Ac-[Nva]C[Phg]T[Trp(7-aza)]EYPHC[Nva]-NH2 (linker 2-10 via mXylyl(4)) [R3102]	0.978 µM
Ac-[Nva]C[Phg]T[Trp(7-aza)]EY[NMeS]HGC[Nva]-NH2 (linker 2-11 via mXylyl(4) (inferred)) [R3101]	> 100 µM
Ac-YEN[Tle]Y[Trp(1-Me)]EYP[Phg][Nva]-NH2 (SMILES CCC[C@H](NC(=O)[C@@H](NC(=O)[C@@H]1CCCN1C(=O)[C@H](Cc1ccc(O)cc1)NC(=O)[C@H](CCC(=O)O)NC(=O)[C@H](Cc1cn(C)c2ccccc12)NC(=O)[C@H](Cc1ccc(O)cc1)NC(=O)[C@@H](NC(=O)[C@H](CC(N)=O)NC(=O)[C@H](CCC(=O)O)NC(=O)[C@H](Cc1ccc(O)cc1)NC(C)=O)C(C)(C)C)c1ccccc1)C(N)=O) [R3110]	2.94 µM
Ac-CVERFCWEF-NH2 (linker 1-6 via mXylyl(4)) [R3125]	> 100 µM
Ac-Y[Nva]C[Phg]T[Trp(7-aza)]EY[NMeS]HC[Nva]-NH2 (linker 3-11 via mXylyl(4)) [R3113]	> 5 µM
Ac-[Nva]C[Phg]T[Trp(7-aza)]EY[NMeS]HC[Nva]-NH2 (linker 2-10 via mXylyl) [R3012]	0.148 µM
Ac-[Nva]T[Phg]C[Trp(7-aza)]EY[NMeS]AC[Nva]-NH2 (linker 4-10 via mXylyl(4)) [R3111]	> 5 µM
Ac-[Nva]CYKNYH[Trp(7-aza)]EYP[Tle]Y-NH2 (SMILES CCC[C@H](NC(C)=O)C(=O)N[C@@H](CS)C(=O)N[C@@H](Cc1ccc(O)cc1)C(=O)N[C@@H](CCCCN)C(=O)N[C@@H](CC(N)=O)C(=O)N[C@@H](Cc1ccc(O)cc1)C(=O)N[C@@H](Cc1c[nH]cn1)C(=O)N[C@@H](Cc1c[nH]c2ncccc12)C(=O)N[C@@H](CCC(=O)O)C(=O)N[C@@H](Cc1ccc(O)cc1)C(=O)N1CCC[C@H]1C(=O)N[C@H](C(=O)N[C@@H](Cc1ccc(O)cc1)C(N)=O)C(C)(C)C) [R3000]	> 10 µM
Ac-[Nva][hCys][Phg]T[Trp(7-aza)]EY[NMeS]HC[Nva]-NH2 (linker 2-10 via mXylyl(4)) [R3103]	> 25 µM
Ac-[Nva]C[Tiq1c(1S)]T[Trp(7-aza)]EY[NMeS]HC[Nva]-NH2 (linker 2-10 via mXylyl(3)) [R3122]	> 50 µM
Ac-CVERFCVYWEF-NH2 (linker 1-6 via mXylyl(4)) [R3124]	> 100 µM
Ac-[Nle]C[Phg]T[Trp(7-aza)]EY[NMeS]HC[Nva]-NH2 (linker 2-10 via mXylyl(4)) [R3112]	> 5 µM
Ac-[Nva][hCys][Phg]T[Trp(7-aza)]EY[NMeS]H[hCys][Nva]-NH2 (linker 2-10 via pXylyl) [R3108]	> 75 µM
Ac-[Nva][hCys][Phg]T[Trp(7-aza)]EY[NMeS]H[hCys][Nva]-NH2 (linker 2-10 via mXylyl(4)) [R3107]	> 75 µM
Ac-[Nva]CYNN[Tle]E[Trp(7-aza)]ECP[Phg][Tle]-NH2 (linker 2-10 via mXylyl(4)) [R3127]	> 75 µM
Ac-[Nva]CYE[Sar][Tle]Y[Trp(7-aza)]E[Nva][Nva]PC-NH2 (linker 2-13 via mXylyl) [R3010]	> 100 µM
Ac-[Nva]C[Phg]T[Trp(1-Me)]EY[NMeS]AC[Nva]-NH2 (linker 2-10 via mXylyl(4)) [R3109]	> 100 µM
Ac-[Nva]C[Phg]T[Trp(7-aza)]EY[NMeS]H[hCys][Nva]-NH2 (linker 2-10 via pXylyl) [R3106]	> 5 µM
Ac-YENY[dW]EYP[Phg][Nva]-NH2 (SMILES CCC[C@H](NC(=O)[C@@H](NC(=O)[C@@H]1CCCN1C(=O)[C@H](Cc1ccc(O)cc1)NC(=O)[C@H](CCC(=O)O)NC(=O)[C@@H](Cc1c[nH]c2ccccc12)NC(=O)[C@H](Cc1ccc(O)cc1)NC(=O)[C@H](CC(N)=O)NC(=O)[C@H](CCC(=O)O)NC(=O)[C@H](Cc1ccc(O)cc1)NC(C)=O)c1ccccc1)C(N)=O) [R3119]	> 100 µM
Ac-[Nva]CYNN[Tle]ECEYP[Phg][Tle]-NH2 (cysteine pairing not given here) [R3128]	> 100 µM
Ac-[Nva]CYE[Sar][Tle]Y[Trp(7-aza)]EC[Nva]P[Nva]-NH2 (linker 2-10 via mXylyl) [R3009]	> 100 µM
Ac-[Nva]CYNN[Tle]E[Trp(7-aza)]ECP[Phg][Tle]-NH2 (cysteine pairing not given here) [R3126]	> 3 µM
Ac-[Nva][hCys][Phg]T[Trp(7-aza)]EY[NMeS]HC[Nva]-NH2 (linker 2-10 via pXylyl) [R3104]	> 2 µM
Ac-[Nva]CYNN[Tle]ECEYP[Phg][Tle]-NH2 (linker 2-8 via mXylyl(4)) [R3129]	> 100 µM
